Laboratory results taken from IntAct's records for PubMed 19851283.

B1: Transcription factor HFR1 (Arabidopsis thaliana (Mouse-ear cress)), Q9FE22 (parent)
chain: MSNNQAFMELGWRNDVGSLAVKDQGMMSERARSDEDRLINGLKWGYGYFDHDQTDNYLQIVPEIHKEVENAKEDLLVVVPDEHSETDDHHHIKDFSERSDHRFYLRNKHENPKKRRIQVLSSDDESEEFTREVPSVTRKGSKRRRRDEKMSNKMRKLQQLVPNCHKTDKVSVLDKTIEYMKNLQLQLQMMSTVGVNPYFLPATLGFGMHNHMLTAMASAHGLNPANHMMPSPLIPALNWPLPPFTNISFPHSSSQSLFLTTSSPASSPQSLHGLVPYFPSFLDFSSHAMRRL
partner: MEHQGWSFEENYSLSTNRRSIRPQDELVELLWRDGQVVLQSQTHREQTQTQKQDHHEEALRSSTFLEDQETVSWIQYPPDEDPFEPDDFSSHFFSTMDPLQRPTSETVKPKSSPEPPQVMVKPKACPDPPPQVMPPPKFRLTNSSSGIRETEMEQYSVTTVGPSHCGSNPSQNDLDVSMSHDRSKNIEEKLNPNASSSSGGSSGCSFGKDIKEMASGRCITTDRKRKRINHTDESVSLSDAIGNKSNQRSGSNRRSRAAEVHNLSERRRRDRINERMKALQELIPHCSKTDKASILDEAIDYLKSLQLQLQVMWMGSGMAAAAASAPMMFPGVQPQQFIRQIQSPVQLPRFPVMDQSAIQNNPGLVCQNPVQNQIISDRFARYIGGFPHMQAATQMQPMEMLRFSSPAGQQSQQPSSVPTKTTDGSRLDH
B2: Transcription factor HFR1 (Arabidopsis thaliana (Mouse-ear cress)), Q9FE22 (parent)
chain: B1 chain
partner: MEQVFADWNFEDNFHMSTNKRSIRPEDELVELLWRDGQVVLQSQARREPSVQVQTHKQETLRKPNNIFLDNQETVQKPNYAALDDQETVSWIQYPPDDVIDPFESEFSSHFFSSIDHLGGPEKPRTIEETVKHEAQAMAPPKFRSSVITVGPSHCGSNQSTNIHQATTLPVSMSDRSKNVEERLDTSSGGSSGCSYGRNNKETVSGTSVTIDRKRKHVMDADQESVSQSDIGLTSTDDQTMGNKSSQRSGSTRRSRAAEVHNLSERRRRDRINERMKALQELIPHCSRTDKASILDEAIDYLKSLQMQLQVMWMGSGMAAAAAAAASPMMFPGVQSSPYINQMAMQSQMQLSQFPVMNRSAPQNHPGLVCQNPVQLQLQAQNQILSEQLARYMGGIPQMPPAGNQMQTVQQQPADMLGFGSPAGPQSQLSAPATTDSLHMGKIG

Variants of: B1
Settings: with pif4_arath PIF4, Q8W2F3

effect of a mutation on the interaction | Variant
disrupting interaction | L173E
disrupting interaction | V172D

Variants of: B2
Settings: with pif5_arath PIF5, Q84LH8

effect of a mutation on the interaction | Variant
disrupting interaction | V172D
disrupting interaction | L173E
